From paper doi:10.1101/2020.12.31.425019 (bioRxiv, 2020) come the findings set out here.

Data set [1] concerns the molecule itself. The experiment in a line: negative-stain EM.
Data set [2] deals with the molecule itself. The data set can be described thus: cross-linking.

B1: fPanx1ΔC (frog Pannexin 1 truncated at Lys357, residues 1-357) (domain or fragment, UniProt B3DLA5 1-357, looked up)
chain: MAIAHIATEYVFSDFLLKDPPESKYKGLRLELAVDKLVSCIAVGLPLLLISLAFAQEITLGSQISCFAPTSFSWRQAAYVDSFCWAAVQQKHLSQSDSGNVPLWLHKFFPYILLLVAVLLYLPNLFWRFTAAPHLSSDLKFVMEELDKCYNRDIKDIKAANNLNSSDKRDGLNSPVVSENLQQSLWEIPLSHYKYPIVEQYLKTKNNSYGLIIKYLICRVVTLIIVFTACIYLGYYISLFSLTDEFTCNIRTGILRNDTALPPLVQCKLIAVGVFRLLSYINLIIYVLIMPFIIYAMLVPFRKTANVLKVYEVLPTFSVQQAPSKTYDDHSLFLLFLEENVSELKSYKFLKVLENIK
modifications: glycosylated in insect cells (upper band sensitive to PNGaseF; site not stated)
As usually defined, the stoichiometry N is a count of units in the complex or per binding partner. As to B1, the “stoichiometry N” value in data set [1] was 7; in data set [2] it was approximately 7.
